The source of these data is patent US20220378925A1 (ORIONIS BIOSCIENCES, published 2022).

The assay has as its target PD-L1 endogenously expressed on HL116 cells (human, UniProt Q9NZQ7 19-290). The experiment in a line: cell-based or functional assay.

Chain of PD-L1 endogenously expressed on HL116 cells (Q9NZQ7 19-290): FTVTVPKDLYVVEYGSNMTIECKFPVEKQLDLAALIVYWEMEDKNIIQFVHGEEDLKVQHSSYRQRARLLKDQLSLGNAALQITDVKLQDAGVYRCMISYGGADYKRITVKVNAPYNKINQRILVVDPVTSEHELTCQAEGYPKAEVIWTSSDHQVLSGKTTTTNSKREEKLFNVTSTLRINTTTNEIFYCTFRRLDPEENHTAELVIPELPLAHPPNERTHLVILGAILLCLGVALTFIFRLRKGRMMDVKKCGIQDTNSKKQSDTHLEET

B1: 2LIG99-hIFNα1, linker-cysteine 12 kDa PEGylated (other)
chain: DVQLVESGGGLVQPGGSLRLSCTASGTIFSINRMDWFRQAPGKQRELVALITSGGTPAYADSAKGRFTISRDNSKNTVYLQMNSLRPEDTAVYYCHVSSGVYNYWGQGTLVTVSSGGSGGSGGSGGSGGSGGSGGSGGSGGSGGCGGSGGSGGSGGSGGSGGSGGSGGSGGSGGSCDLPETHSLDNRRTLMLLAQMSRISPSSCLMDRHDFGFPQEEFDGNQFQKAPAISVLHELIQQIFNLFTTKDSSAAWDEDLLDKFSTELYQQLNDLEACVMQEERVGETPLMNADSILAVKKYFRRITLYLTEKKYSPCAWEVVRAEIMRSLSLSTNLQERLRRKEHHHHHH
modifications: 12 kDa mPEG-Maleimide on the cysteine in the middle of the linker (about 75% monoPEGylated material)
Turning to B1, the “decrease of biological activity after linker-cysteine PEGylation, HL116 reporter-assay” value came to 10 fold.

B2: 2LIG99-hIFNα1, amine PEGylated (polyPEGylated, mPEG20K-Succinimidyl Carboxymethyl Ester) (other)
chain: B1 chain
modifications: several 20 kDa PEG groups on the N-terminal amine and/or lysine residues (mainly polyPEGylated, sites not stated)
Consider B2, for which the “drop of biological activity upon amine (poly)PEGylation, HL116 reporter-assay” value was approximately 20000 fold.

B3: 2LIG99-hIFNα1, N-terminal 20 kDa PEGylated (other)
chain: B1 chain
modifications: 20 kDa mPEG-aldehyde on the N-terminal amine (mainly mono-PEGylated)
Consider B3, for which the “reduction in biological activity after N-terminal 20 kD PEGylation, HL116 reporter-assay” value is approximately 20 fold.
